Test results from the supplement of paper PMC10724198.
± gives the standard deviation of the averaged measurements.

These sequences were tested on Saccharomyces cerevisiae (assay: protein stability index of tFT-peptide fusion (C-terminal peptide) (PSI (0-1 scale)); higher = more stable (slower turnover)). Details: genetic background: wild type; temperature: 30 C.
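Note: PSI is a weighted mean of sequencing reads over stability bins, variants kept only with over 10 reads, mCherry proximal and sfGFP distal, peptide attached via GGGS linker.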

Point of comparison: MGGYLFLHVGYV, protein stability index 0.614 ± 0.062. Against it:
- ESKCADNKMKRK — within error, 0.652 ± 0.022
- YRSPRSSSGSSF — within error, 0.67 ± 0.041
- RLSDFFSPPLLP — within error, 0.717 ± 0.047
- PYTPPTSSRDRS — within error, 0.661 ± 0.019
- VCFSVSWSGLSC — within error, 0.681 ± 0.009
- WPGRAVCLGAGW — higher, 0.734 ± 0.056
- TGNQCGNGYSWR — higher, 0.696 ± 0.013
- YKKKKKKKNNKK — within error, 0.662 ± 0.043
- PCPPAPPRFLLR — higher, 0.732 ± 0.016
- VSGLGAHEPDKL — within error, 0.667 ± 0.0072
- RSLGFPLRNVTH — within error, 0.655 ± 0.015
- GCRSYRVFSGMI — within error, 0.727 ± 0.12
- NLGRGYLVFRGM — within error, 0.709 ± 0.062
- PPSPLAPPLPPP — within error, 0.709 ± 0.036
- GTEKRDSDKIIL — within error, 0.68 ± 0.086
- PLRPQALDPFLY — higher, 0.6835 ± 0.0028
- KKTKNKKKQNGK — higher, 0.6863 ± 0.0012
- LIRPSAPSHRSP — higher, 0.798 ± 0.025
- DVRSGRAVVGGW — within error, 0.63 ± 0.051
- PSLLLPPLPLYT — within error, 0.662 ± 0.031
- GALYAGWRGPTC — within error, 0.669 ± 0.031
- YSLETGIFVFHR — higher, 0.7027 ± 0.0068
- LVFLRDFFSLFS — higher, 0.71 ± 0.017
- IIVWGGAGLWGV — within error, 0.59 ± 0.0027
- PAASHPPRWPRR — higher, 0.75 ± 0.049
- VCLVNWLCFFCV — within error, 0.529 ± 0.037
- HGISLVWEVGEG — within error, 0.6439 ± 0.0035
- EKRAKKKVKIII — within error, 0.62 ± 0.035
- VTREEVSAGRGR — within error, 0.657 ± 0.058
- EIVKAHKVKKRK — higher, 0.7166 ± 0.0045
- TRGKETESIDSR — within error, 0.685 ± 0.036
- LFKKVGGRSLVW — higher, 0.6813 ± 0.0036
- ALLMDENTRVLF — within error, 0.649 ± 0.051
- FLPPPPRRPFTR — within error, 0.6282 ± 0.0057
- IPQTITLPHSNP — within error, 0.694 ± 0.088
- QQTSGVQERICL — within error, 0.744 ± 0.07
- SSGNSVDCFGHQ — higher, 0.6959 ± 0.0057
- PPRPSPPLSPLP — higher, 0.72 ± 0.042
- KEGKGRGDGGRE — higher, 0.697 ± 0.018
- CSRTIGGFLWDQ — higher, 0.6994 ± 0.0054
- AYYRPQNLSPVT — within error, 0.675 ± 0.083
- SLSVPYPPGLLP — higher, 0.7119 ± 0.0022
- VRSTPLKEMMRH — within error, 0.681 ± 0.0092
- APRRAPSRRIRL — higher, 0.748 ± 0.016
- SGTQSGAFSRGQ — within error, 0.642 ± 0.081
- GRRMGHQLGAGA — within error, 0.684 ± 0.039
- LDGAHLLLNTIP — within error, 0.687 ± 0.039
- KKKKQKKNKKKK — within error, 0.6602 ± 0.0052
- VVLLGAVGLVER — within error, 0.679 ± 0.029
- VVCVGGVELLVL — lower, 0.532 ± 0.019
- PPPDPPLHHNLP — within error, 0.693 ± 0.036
- GTRGLDTPPGRD — within error, 0.663 ± 0.067
- PYGFNPSANGSS — within error, 0.696 ± 0.068
- FCLIHCIVPFPV — within error, 0.507 ± 0.093
- PSAPLVPNLLAA — within error, 0.662 ± 0.016
- WAFGFLFISSAM — lower, 0.5077 ± 0.0014
- VGMCVGEVVAIV — lower, 0.521 ± 0.015
- TSPLSPSGPQSS — higher, 0.86 ± 0.14
- LFSLPPPSPPPR — within error, 0.694 ± 0.03
- HSRPHTAPPYRA — within error, 0.643 ± 0.023
- DCCTGGKCLEVW — within error, 0.603 ± 0.047
- PPLRFFPPVSSH — within error, 0.667 ± 0.014
- IENNIITRGTRV — higher, 0.735 ± 0.027
- GIMFVSEPVLSS — within error, 0.664 ± 0.0025
- PFSVCVSSSLCG — within error, 0.665 ± 0.0076
- GSCSGTVLGGSV — within error, 0.626 ± 0.024
- LPPRSRHPSPYA — within error, 0.654 ± 0.016
- PRSPLSIFPSSL — within error, 0.692 ± 0.13
- GAVGGGSAADPE — within error, 0.667 ± 0.11
- SSHLILTVAPSA — within error, 0.6515 ± 0.0045
- LVIKNVWHESTY — within error, 0.709 ± 0.054
- PPPPPPPPPCHL — within error, 0.644 ± 0.078
